Experimental data taken from patent US20230212319A1, “NOVEL ANTIGEN BINDING DOMAINS AND SYNTHETIC ANTIGEN RECEPTORS INCORPORATING THE SAME” (University of Southern California, priority 2020, published 2023).

tested on: RAJI cells; test: JNG assay, co-culture with RAJI cells; type: cell-based; details: JNG cells expressing construct, co-culture with Raji
Procedure, shortened: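 Read-out is NFAT-driven GFP measured by flow cytometry after ~4–18 h co-culture of SAR-expressing JNG cells with target cells (E:T about 1:2). SARs were introduced by lentiviral spinfection and selected with puromycin or blasticidin when possible; scores (+/- to 5+ ≈ 5–50% GFP+) are relative to parental JNG cells.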

Row | Molecule | NFAT-GFP ASSAY: Raji
1 | 22117 (protein) MALPVTALLLPLALLLHAARPQLQLQESGPGLVKPSETLSLTCTVSGDSISSGDYYWGWIRQPPGKGLEWIGHIYYSGVTYYNPSLKSRVTISVDTSRNQFSLKLSSVTAADTAVYYCTREDSSNWRSRGQGTLVTVSSLEIQNPDPAVYQLRDSKSSDKSVCLFTDFDSQTNVSQSKDSDVYITDKCVLDMRSMDFKSNSAVAWSNKSDFACANAFNNSIIPEDTFFPSSDVPCDVKLVEKSFETDTNLNFQNLSVIGFRILLLKVAGFNLLMTLRLWSSRAKRSGSGVKQTLNFDLLKLAGDVESNPGPTSTMALPVTALLLPLALLLHAARPQLQLQESGPGLVKPSETLSLTCTVSGDSISSGDYYWGWIRQPPGKGLEWIGHIYYSGVTYYNPSLKSRVTISVDTSRNQFSLKLSSVTAADTAVYYCTREDSSNWRSRGQGTLVTVSSLESGGGGSFEQVQLQQPGAELVKPGASVKMSCKASGYAFSSYWINWMKQKPGQGLEWIGQIYPGDGDTNYNGKFKGRATLTADTSSSTAYMQLSSLTSEDSAVYFCARSITTVVGCAMDYWGQGTSVTVSSTREDLKNVFPPEVAVFEPSKAEIAHTQKATLVCLATGFYPDHVELSWWVNGKEVHSGVCTDPQPLKEQPALNDSRYCLSSRLRVSATFWQNPRNHFRCQVQFYGLSENDEWTQDRAKPVTQIVSAEAWGRADCGITSASYHQGVLSATILYEILLGKATLYAVLVSALVLMAMVKRKDSRGRAKRSGSGATNFSLLKQAGDVEENPGPSRGHMTEYKPTVRLATRDDVPRAVRTLAAAFADYPATRHTVDPDRHIERVTELQELFLTRVGLDIGKVWVADDGAAVAVWTTPESVEAGAVFAEIGPRMAELSGSRLAAQQQMEGLLAPHRPKEPAWFLATVGVSPDHQGKGLGSAVVLPGVEAAERAGVPAFLETSAPRNLPFYERLGFTVTADVEVPEGPRTWCMTRKPGA | 3+ (refer to approximately 5%, 10%, 20%, 30%, 40% and 50% GFP positive cells)
2 | 22207 (protein) MALPVTALLLPLALLLHAARPDIQMTQSPSSLSASVGDRVTITCKASDHINNWLAWYQQKPGQAPKLLIYGATTLETGVPSRFSGSGSGTDYTLTISSLQPEDFATYYCQQSWNTPWTFGQGTKLEIKRLEGQPKANPTVTLFPPSSEELQANKATLVCLISDFYPGAVTVAWKADGSPVKAGVETTKPSKQSNNKYAASSYLSLTPEQWKSHRSYSCQVTHEGSTVEKTVAPTECSPIKTDVITMDPKDNCSKDANDTLLLQLTNTSAYYMYLLLLLKSVVYFAIITCCLLRRTAFCCNGEKSRAKRSGSGATNFSLLKQAGDVEENPGPTSMDWIWRILFLVGAATGAHSFEQVQLQQPGAELVKPGASVKMSCKASGYAFSSYWINWMKQKPGQGLEWIGQIYPGDGDTNYNGKFKGRATLTADTSSSTAYMQLSSLTSEDSAVYFCARSITTVVGCAMDYWGQGTSVTVSSTRSQPHTKPSVFVMKNGTNVACLVKEFYPKDIRINLVSSKKITEFDPAIVISPSGKYNAVKLGKYEDSNSVTCSVQHDNKTVHSTDFEVKTDSTDHVKPKETENTKQPSKSCHKPKAIVHTEKVNMMSLTVLGLRMLFAKTVAVNFLLTAKLFFLRAKRSGSGVKQTLNFDLLKLAGDVESNPGPSRGHMTEYKPTVRLATRDDVPRAVRTLAAAFADYPATRHTVDPDRHIERVTELQELFLTRVGLDIGKVWVADDGAAVAVWTTPESVEAGAVFAEIGPRMAELSGSRLAAQQQMEGLLAPHRPKEPAWFLATVGVSPDHQGKGLGSAVVLPGVEAAERAGVPAFLETSAPRNLPFYERLGFTVTADVEVPEGPRTWCMTRKPGA | Raji (5+) (refer to approximately 5%, 10%, 20%, 30%, 40% and 50% GFP positive cells)
3 | 22200 (protein) MTIRLLCYMGFYFLGAGLMEADIYQTPRYLVIGTGKKITLECSQTMGHDKMYWYQQDPGMELHLIHYSYGVNSTEKGDLSSESTVSRIRTEHFPLTLESARPSHTSQYLCASSEARGLAEFTDTQYFGPGTRLTVLEDLKNVFPPEVAVFEPSEAEISHTQKATLVCLATGFYPDHVELSWWVNGKEVHSGVCTDPQPLKEQPALNDSRYCLSSRLRVSATFWQNPRNHFRCQVQFYGLSENDEWTQDRAKPVTQIVSAEAWGRADCGFTSESYQQGVLSATILYEILLGKATLYAVLVSALVLMAMVKRKDSRGRAKRSGSGATNFSLLKQAGDVEENPGPTSATMDWIWRILFLVGAATGAHSGPQVQLQESGGGLAQAGGSLRLSCAASGRTFSMGWFRQAPGKEREFVAAITYSGGSPYYASSVRGRFTISRDNAKNTVYLQMNSLKPEDTAVYYCAANPTYGSDWNAENWGQGTQVTVSSGSGGGGSGGGGSGGGGSFEAQTVTQSQPEMSVQEAETVTLSCTYDTSESDYYLFWYKQPPSRQMILVIRQEAYKQQNATENRFSVNFQKAAKSFSLKISDSQLGDAAMYFCAYRSAVNARLMFGDGTQLVVKPNTRIQNPDPAVYQLRDSKSSDKSVCLFTDFDSQTNVSQSKDSDVYITDKCVLDMRSMDFKSNSAVAWSNKSDFACANAFNNSIIPEDTFFPSPESSCDVKLVEKSFETDTNLNFQNLSVIGFRILLLKVAGFNLLMTLRLWSSRAKRSGSGVKQTLNFDLLKLAGDVESNPGPSRGHMTEYKPTVRLATRDDVPRAVRTLAAAFADYPATRHTVDPDRHIERVTELQELFLTRVGLDIGKVWVADDGAAVAVWTTPESVEAGAVFAEIGPRMAELSGSRLAAQQQMEGLLAPHRPKEPAWFLATVGVSPDHQGKGLGSAVVLPGVEAAERAGVPAFLETSAPRNLPFYERLGFTVTADVEVPEGPRTWCMTRKPGA | + (refer to approximately 5%, 10%, 20%, 30%, 40% and 50% GFP positive cells)
4 | 22202 (protein) MALPVTALLLPLALLLHAARPACAGHLEQPQISSTKTLSKTARLECVVSGITISATSVYWYRERPGEVIQFLVSISYDGTVRKESGIPSGKFEVDRIPETSTSTLTIHNVEKQDIATYYCALWEAQQELGKKIKVFGPGTKLIITDKQLDKQLDADVSPKPTIFLPSIAETKLQKAGTYLCLLEKFFPDVIKIHWQEKKSNTILGSQEGNTMKTNDTYMKFSWLTVPEKSLDKEHRCIVRHENNKNGVDQEIIFPPIKTDVITMDPKDNCSKDANDTLLLQLTNTSAYYMYLLLLLKSVVYFAIITCCLLRRTAFCCNGEKSRAKRSGSGATNFSLLKQAGDVEENPGPTSATMDWIWRILFLVGAATGAHSGPQVQLQESGGGLAQAGGSLRLSCAASGRTFSMGWFRQAPGKEREFVAAITYSGGSPYYASSVRGRFTISRDNAKNTVYLQMNSLKPEDTAVYYCAANPTYGSDWNAENWGQGTQVTVSSGSGGGGSGGGGSGGGGSFEAIELVPEHQTVPVSIGVPATLRCSMKGEAIGNYYINWYRKTQGNTMTFIYREKDIYGPGFKDNFQGDIDIAKNLAVLKILAPSERDEGSYYCACDTLGMGGEYTDKLIFGKGTRVTVEPRSQPHTKPSVFVMKNGTNVACLVKEFYPKDIRINLVSSKKITEFDPAIVISPSGKYNAVKLGKYEDSNSVTCSVQHDNKTVHSTDFEVKTDSTDHVKPKETENTKQPSKSCHKPKAIVHTEKVNMMSLTVLGLRMLFAKTVAVNFLLTAKLFFLRAKRSGSGVKQTLNFDLLKLAGDVESNPGPSRAHMTEYKPTVRLATRDDVPRAVRTLAAAFADYPATRHTVDPDRHIERVTELQELFLTRVGLDIGKVWVADDGAAVAVWTTPESVEAGAVFAEIGPRMAELSGSRLAAQQQMEGLLAPHRPKEPAWFLATVGVSPDHQGKGLGSAVVLPGVEAAERAGVPAFLETSAPRNLPFYERLGFTVTADVEVPEGPRTWCMTRKPGA | Raji (3+) (refer to approximately 5%, 10%, 20%, 30%, 40% and 50% GFP positive cells)
5 | 22205 (protein) MTIRLLCYMGFYFLGAGLMEADIYQTPRYLVIGTGKKITLECSQTMGHDKMYWYQQDPGMELHLIHYSYGVNSTEKGDLSSESTVSRIRTEHFPLTLESARPSHTSQYLCASSEARGLAEFTDTQYFGPGTRLTVLEDLKNVFPPEVAVFEPSEAEISHTQKATLVCLATGFYPDHVELSWWVNGKEVHSGVCTDPQPLKEQPALNDSRYCLSSRLRVSATFWQNPRNHFRCQVQFYGLSENDEWTQDRAKPVTQIVSAEAWGRADCGFTSESYQQGVLSATILYEILLGKATLYAVLVSALVLMAMVKRKDSRGRAKRSGSGATNFSLLKQAGDVEENPGPTSATMDWIWRILFLVGAATGAHSGPQVQLQESGGGLAQAGGSLRLSCAASGRTFSMGWFRQAPGKEREFVAAITYSGGSPYYASSVRGRFTISRDNAKNTVYLQMNSLKPEDTAVYYCAANPTYGSDWNAENWGQGTQVTVSSGSGGGGSGGGGSGGGGSFEQVQLQQPGAELVKPGASVKMSCKASGYAFSSYWINWMKQKPGQGLEWIGQIYPGDGDTNYNGKFKGRATLTADTSSSTAYMQLSSLTSEDSAVYFCARSITTVVGCAMDYWGQGTSVTVSSTRIQNPDPAVYQLRDSKSSDKSVCLFTDFDSQTNVSQSKDSDVYITDKCVLDMRSMDFKSNSAVAWSNKSDFACANAFNNSIIPEDTFFPSPESSCDVKLVEKSFETDTNLNFQNLSVIGFRILLLKVAGFNLLMTLRLWSSRAKRSGSGVKQTLNFDLLKLAGDVESNPGPSRGHMTEYKPTVRLATRDDVPRAVRTLAAAFADYPATRHTVDPDRHIERVTELQELFLTRVGLDIGKVWVADDGAAVAVWTTPESVEAGAVFAEIGPRMAELSGSRLAAQQQMEGLLAPHRPKEPAWFLATVGVSPDHQGKGLGSAVVLPGVEAAERAGVPAFLETSAPRNLPFYERLGFTVTADVEVPEGPRTWCMTRKPGA | Raji (5+) (refer to approximately 5%, 10%, 20%, 30%, 40% and 50% GFP positive cells)
6 | 22103 (protein) MALPVTALLLPLALLLHAARPDIQMTQSPSSLSASVGDRVTITCKASDHINNWLAWYQQKPGQAPKLLIYGATTLETGVPSRFSGSGSGTDYTLTISSLQPEDFATYYCQQSWNTPWTFGQGTKLEIKRLEGQPKANPTVTLFPPSSEELQANKATLVCLISDFYPGAVTVAWKADGSPVKAGVETTKPSKQSNNKYAASSYLSLTPEQWKSHRSYSCQVTHEGSTVEKTVAPTECSPIKTDVITMDPKDNCSKDANDTLLLQLTNTSAYYMYLLLLLKSVVYFAIITCCLLRRTAFCCNGEKSRAKRSGSGATNFSLLKQAGDVEENPGPTSMDWIWRILFLVGAATGAHSFEQVQLQQPGAELVKPGASVKMSCKASGYAFSSYWINWMKQKPGQGLEWIGQIYPGDGDTNYNGKFKGRATLTADTSSSTAYMQLSSLTSEDSAVYFCARSITTVVGCAMDYWGQGTSVTVSSTRASTKGPSVFPLAPSSKSTSGGTAALGCLVKDYFPEPVTVSWNSGALTSGVHTFPAVLQSSGLYSLSSVVTVPSSSLGTQTYICNVNHKPSNTKVDKRVEPKSCEVKTDSTDHVKPKETENTKQPSKSCHKPKAIVHTEKVNMMSLTVLGLRMLFAKTVAVNFLLTAKLFFLRAKRSGSGVKQTLNFDLLKLAGDVESNPGPSRGHMTEYKPTVRLATRDDVPRAVRTLAAAFADYPATRHTVDPDRHIERVTELQELFLTRVGLDIGKVWVADDGAAVAVWTTPESVEAGAVFAEIGPRMAELSGSRLAAQQQMEGLLAPHRPKEPAWFLATVGVSPDHQGKGLGSAVVLPGVEAAERAGVPAFLETSAPRNLPFYERLGFTVTADVEVPEGPRTWCMTRKPGA | 4+ (refer to approximately 5%, 10%, 20%, 30%, 40% and 50% GFP positive cells)
